Assay: label from the status in PepcDB records

Row | Sequence | protein production
1 | MKELQEKNEQITLLVEMSDIMLACGSQEELSEVMAKYSQRLLQFSSGYLFIMHPSKNYLEKAASWGNPHPHDLTFTPEQCWAIRLGRIHYAGSSRIELMCSHMMFDEQPELSLLCVPLMAQNDIYGLLYLEVGLKFDENQQLLITAFAELTALALANVRLRENLRYQSIR | failed
2 | AIANSLVRRSAQQLSLWRTYCIKHNASEAASPGRNAGRPNYEEFIGRHQRQAQCSIVVQVSSEKSYEELYNYCSSFGSIMGAHHYCVRQDETLHYILLEYATSDEAAAAIGAGVTNGELSGVPVRSPFLWFRAAGGGRRSPKLVANTAPALLSLDGTRQVDQRHLLGLLRGAADIEEQVQQLYEHTRLNELGIRMRFLAALQVQQAIAGMFPAAQAQPFGSSVNGFGRMGCDLDLILRFDSDMGAKIPLEAAVPSRLVYHTKENLSNGRSQTQRHMECFGDMLHLFLPGVCHVRRILQARVPIIKYHHEHLDLEVDLSMSNLTGFYMSELLYMFGEMDPRVRPLTFTIRRWAQTCGLTNPSPGRWISNFSLTCLVMFFLQQLRQPILPTIGALAKAAEPGDSRVTEDGINCTFTRNVDRLGFRSRNQSSLSELLLQFFEFYSQFDFHNRAISLNEGKPLSKPDHSAMYIVNPLEQLLNVSKNVSLEECERLRIEVRNAAWVLESEVENASVPEGDGQELSCGLLNLFKHPEKAVIRPNMFFKPRMVEVSDLFEQKEAGATSSSTPPTPAITYKSASVRQQVQSIKAATRSELKQLRGSGSSVPTSSPNNRRRS | failed
3 | IHHLPPVKAPLQTKKKIMKHCFLCGKKTGLATSFECRCGNNFCASHRYAEAHGCNYDYKSAGRRYLEEANPV | not failed
4 | MSSRKIGLNLVVIVALAALFTGIWALYNRPVSVPDWPERISGFSFSPFRLNQNPQSGRYPSAEQMRTDLELVARHTHSIRTYSVQGALGDIPALAEAFGLRVSLGIWLGPDLASNEAEIARAIRIANESPSVVRVIVGNEALFRREVTAEQLIAYLDRVRAAVKVPVTTAEQWHVYREHPELAQHVDLIAAHVLPYWEATPVADAVDFVLERARELKAAFPRKPLLLAEVGWPSNGRMRGSAEATPADQAIYLRRLTNALNGEGYSYFVIEAFDQPWKVSAEGSVGAYWGVYNADRKAKFNFTGPVVPIPKWRALAIASAVLAVLAFTLLLIDSSSLRQRGRTFLAVVSFACASVLVWIAYDYSQQYSTWFSLTVGALLGVGALGVVIVLFTEAHELAEAVWTRKRRRPFLPITAARAYRPKVSIHVPCYNEPPELLKQTLDALARLDYPDYEVLVIDNNTRDPAVWQPVEAHCARLGERFRFFHVAPLEGFKAGALNFALGHVAADVEVVAVIDADYCVDPDWLRHMVPHFGDPRIAVVQSPQDYRDQHESAFKRLCYAEYKGFFHIGMVTRNDRDAIIEHGTMTMIRRSVLDELRWPEWCITEDAELGLRVFEKGLSAAYFERSYGKGVMPDTFIDFKKQRFRWAYGAIQIMKRHTDALLRGRGPDGSRLTRGQRYHFVAGWLPWIADGLNIFFTLGALLWSAAMIIVPKRVDPPLLIFAILPLALFVFKVGKILFLYRRTVGVDLRDSFFAALAGLSLSHTIAKAVLYGFVTRGIPFFRTPKMRSSHGLLVALAEAREEVFVMLLLWGAAAGIVAVQGVPSRDLLIWVAMLLVQSLPYLAALVMALLSSLPKPREELAGGAEQIGG | failed
5 | MLIYGLARLLLFVVLTLIIHSLALLISAPVPLVMSAMLALIVAFPLSMLVFSKLRMNATQAVSQWDAQRKAHKEWVRSELADR | failed
6 | MLKNIFKISNIPAVLWGDKSEKIFIAVHGNMSNKEDAVIQIVAEEADRKGYQVLSFDLPEHGERKNDNTPCKVQFCVNELSIIMNYAKEHWKEINVFACSMGAYFSLLAFQNDVIEKALFLSPVVNMERIIENMMKWFNVTPELLQKEMTIETPIGQKLYWDYLCYVKEHPISTWNTDTYIMYGAKDELCEFETINYFTKKHRCELEVMETGEHYLHTEEQLKIFEQWLHKHID | failed
7 | NVGVFVLMHGDSTASSMLKTAQELLGTSIGTAMNMPLTMEVQTMYEQLRNQVITQKESLNNGILLLTDMGSLNSFGNMLFEETGIRTKAITMTSTMIVLEAIRMASVGRSLEDIYQNIQLSFESVVREQFRSSLQK | not failed
8 | MRTDNINHWDVVAETYSEENNRGRNFHSQIYLAAVNELLGNVKGKCVLDAGCGDGFFSLELAQKGALVTAVDSSEAMLSIAKHKHVHDNLQYYNMDLTRELTFEDKFFDIVVANMLLMDIPEIELLIFEIARVLKKPGTFIFSITHPCFFLSDWEENENNIKTYKKIGNYLEERVEELNFWGKTLHYHRPLSRYMEAVEKAGMYVSSLREPVPPRELIELYPEQEYHCRIPSFVVIMAQMV | failed
9 | MSHKCFKDESFETRISCPLCQKELIMTWQRDNIPYFGEIMYVSAKCPCSFRFADTMILSSKEPMRYELSVESPEDLDARVIRSTSGTIRIPEMGIVVEPGTVSDSYITNIEGVLQRVQNVLMTASRWVREDEEKFARSQELLCMLNEVIEGRRAITVIIEDPLGNSAIISKKAVASKLSKEEAEKLNTGMIVFDVDKSELAHDISDNVKPLGGDLEHHHHHH | not failed
10 | EVVVTALGIKREKKMLGYAVQELKSDELNKTGDPSVTSALQGKVAGLQMNTSATGLGGSTKITIRGNSSLTDNNQPLWIVDGVPFSDTSTSSASRYDGVDRGSASMDINPDDIESISVLKGPNAAALYGSRAGNGVILITTKKGSK | failed
11 | NPDYVEVDRILEVAHTKDAETGEEVTHYLVKWCSLPYEESTWELEEDVDPAKVKEFESLQV | not failed
12 | VKDVRKIQFMPMERHNTELLSLVDNLPDPVFAIDLKGAVDMANMSALSLLGLHKQEVIGTQIGALLPSVRFSRWSEGVNARTRENLVIDGLDYILELMPVY | failed
13 | MGYDPRISVSKWYEKWMLIYVVHSVKATTLSNYVNGFERVREYIGYMRLIEVRPTHILDMIKGLEEEGYARTTVIQSLSVVRQLFKKAYGGKMIPIDPVADIKLEHHHHHH | not failed
14 | REVPRCLADLGNGSVHGYRAGRVLSDSGPTGRVGEELMRSFASFFVRTASVPVAELPARPEGWPRDGDTQGFLDWLVHFTERRVHRPNRDRFGALFDAVGVPEDAMARFAAGHRCRAVRPFRLLHTDVHRANVVVRGRRLAVIDWELAILGDPLHDLATHLVRMAYGKEEQGRMVDLWAEAMADAGFTDLTAGLHEDLPVYVAFEYAQSVFPDVMRAAIDLPQ | failed
15 | MDAKEDVRPTGRGGRGVTAKSHVIVTSNMSVRQFLDVKYTTMNLNLFLSLDPIVDDNQNTLIKKDCSGRVDKDKGIVGDAQVFYTNGFKMSAMVTKHTNRSYLNNPTSIRRKLFDDAGVKGSNGVVRFHSVETSNVVTISVVNDFYNNEMGDDGVTNVTGIIRLARSTNGDSN | failed
16 | MGACVCRMNPDNETMSVSSASISRPASAGIAMGAARKNRPLCHETIRWRSDVPLTEGQLRSKRDEFWDTAPAFDGRKEIWDALRAATTAAEGLDFQMAQAILDGANVSVPNGYLTECYDELGTQYKVPIYCLSYPINIVKEENGRDSPAEYSEPVDGGTDIFLKLRISSTMTDVKLPVYSKDTVGQCKKKLQAAEGVDACCQRWFYSGKLLGDKVPIDECSIHQGYVVQVIVNTEHYNHDNSTSTAHAS | failed
17 | MRQAKTDLAEQIFSATDRLMAREGLNQLSMLKLAKEANVAAGTIYLYFKNKDELLEQFAHRVFSMFMATLEKDFDETKPFFEQYRQMWKNIWYFLQENPTILSNLKQYESLPNFKDICKNIKNCRWDLFCHQAQKAGLLAELSEDILFLLSLKTAINLASDAKFIDFDLKPEILESVIERSWRAIQK | not failed
18 | MSKGKYIHFDTLVSAKTGDIVAIQDILNQFRGYIISRSLRTAYRSDGSLYQYIDTDVQHKMETDLIEAIYKFEIRLEHHHHHH | failed
19 | MLLDGTPFARRRVTSLTSANRKGAARRTCPEAAGGPMASSAGLALCAQTLVVRGGSRFLAFSTTGSDDDCVFTYDCSTAEKKATPEDKGEDGQPADTGSDSILASTFSKSGRYFALTDDSKRLILFRTKPWQCLSARTIACQCVYFCVLDGIKCVLFRNSTRQVLSQACIEPAHCCGAVVSGSLCPLVIXAVSPDDQFVLTADRDEKIRVSWAAAPHSIESFCLGHTEFVSRILVVPSHPELLLSSSGDGTLRLWEYRSGRQLQCCDLAGLQEPGEQPGHKGLAASRIAFWGQESYVVLLCECVPVVFVFQLDASRQQLVFRQRLTFPHRVWDVVFEEARGLWVLQDCRDAPLVLWRPVGGEWQAAPDGAVSPRLCSHLRESWAMLEGSVGTDDSFRSLYKATFDNMTSYLKKKEERLQQQLKKKRQRSPFPGSPEQTKKACPGQSALSC | failed
20 | METTSVFRADFLSELDAPAQAGTESAVSGVEGLPPGSALLVVKRGPNAGSRFLLDQAITSAGRHPDSDIFLDDVTVSRRHAEFRLENNEFNVVDVGSLNGTYVNREPVDSAVLANGDEVQIGKFRLVFLTGPKQGEDLEHHHHHH | failed
21 | MASNSRSSISPWTFSQNKMFERALAVYDKDTPDRWHNVAKAVGGKTVEEVKRHYDILVEDLINIETGRVPLPNYKTFESNSRSINDFDTRYITKYLYMMLSIYFDNHSSDFEKFSQKVLVSYISLV | failed
22 | MIKGFRLWILIVSLGLSFSFLGYQWLTRYNFNTDHQVGDVIDSLNGVEIYYNGGVNTNEGRNLSLDGYNLGIKYQCVEFVKRYFYQRYQHQMPDSFGHARDFFDNLLTDGSWNEKRALRQFTNGSQSKPMADDLLVFAPWILNPYGHVAIIAAVTDKGIEIAQQNPGPFAPSREYFPLIQRDGLWYIDAPRAKGWLRWEATSPNVATENSGFIDPVMVIKELEHHHHHH | not failed
23 | MRLLIAGRLFFGLGLALWALGAGPSPARAAGMSLIRDAEIENTIAMIATPLLRAASIGDRAITFRLINDDTINAFATTEMRVFVYTGLFLKTEGPDELKGVIAHEMGHLAGGHLLRMKDEMANASMTALVGMLAGAAAGIASGRGDVGSAVMMGTNQAAMRGFLTFSRTQESSADSFAMRMLDATGQSAAGMLKFFRKLGDQEALITASQDPYVRTHPLTRDRITAVADHVAHSRFSDVPPSPAEVLAYQRAKAKLMAFLKSTGATLAAYPATDRSVAARYARAIAYYRAGDLGRALPLIDGLIAEDPNDPYFEELRGQMLFENQRLREALGSYTKAARLAPTEPLILVSLAHVQVELGDRPLLENALTNLNAALGLDPTNSFAWRQMANASGKLGDEAMAAYYLAEMALSQGDPREALAHAKRAEGRIPKGSPQGLRLQDLIAEAERQKKRQEDRD | failed
24 | MEQRIWDLFGISADGNISRGNSGCVHTRNNKKEGDVLKVLTYVMLASVILFTTTYLILYLTYAKPVEIDVPFYGAPRGYTTITYEEVILPLTGKYKIENCYVQDSRSIYSNEGYLSERGVRIIVGNYTEDVYVRLIPQKMIPSEIIFLLMVGGVLGYVGDRMFKFK | failed
25 | MGENYKFFNHKDCEFFPCHKTNKPEEFNCLFCYCPLYALGENCGGNFKYTDKGIKDCSSCILPHKKDNYNYIMSKFQDLVKITSKKLEHHHHHH | failed
26 | DVTERRRAREALQESEARMKGIASNVPGMVFRLERPRAGAFSDFAYISEGSEALVGYSARELIESGRGIRGLVHPDDRERYWSSQMAALDENRDWHWQGRILTRQGELRWADIKASARCFEDGRAVWDGVVWD | failed
27 | MQEKIHWITNLRGIACMMVVMIHSTSWYITHPHAITLLQWDIANLLNSASRVSVPLFFMISGYLFFGERSAQPRHFWRIGLCIAFYSALSLLYITLFTHINVELSLKNLLQKPVFYHLWFFFAITVIYLLSPLLQVKSTSSTMLLALMAILGILANPNMVSVKAAGIEWLPVNLYINGDTFYYVLYGVLGRAIGTLDTDKKWLTPLCAALFIAAVWVISRGTLHELRWRGDFGDTWYLYCGPAVFVCAVTLLTLAKNWLNARPLPGIACIARHSLGIYGFHALIVHALRASHLELSRWPLLDIVWIFSAALLGSLLLSGLVQRIDSRRLVS | failed
